tested on: Escherichia coli TOP10; test: shrunken log2 fold change of peptide-encoding DNA abundance (4.5 h post-induction vs induction); higher = less antimicrobial activity (less host growth inhibition); details: time post-induction: 4.5 h; library: site-saturation at positions 5, 18, 19, 20
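Also: peptides expressed intracellularly from a pBAD plasmid library in pooled LB shake-flask culture, induced with 0.3% L-arabinose, DNA abundance read by NGS, three biological replicates, DESeq2 with apeglm shrinkage.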

Compared with RRIRSRPPRLPRPRPRPFHHPRP, RRIRKRPPRLPRPRPRPFEIPRP is higher in “shrunken log2 fold change” value: -0.804 for the first, -0.201 for the second.

First: RRIRYRPPRLPRPRPRPEWHPRP
Second: RRIRERPPRLPRPRPRPTHTPRP
The “shrunken log2 fold change” value of the first is higher: -0.186 for the first, -0.409 for the second.

First: RRIRRRPPRLPRPRPRPPLRPRP
Second: RRIRYRPPRLPRPRPRPLGDPRP
The “shrunken log2 fold change” value of the first is higher: 0.964 for the first, -0.079 for the second.

Compared with RRIRMRPPRLPRPRPRPHGPPRP, RRIRRRPPRLPRPRPRPYSTPRP is lower in “shrunken log2 fold change” value: 0.752 for the first, -0.295 for the second.

RRIRERPPRLPRPRPRPPTCPRP and RRIRTRPPRLPRPRPRPWEQPRP are within 0.2 log units of each other in “shrunken log2 fold change” value: -0.0707 for the first, 0.0248 for the second.

RRIRQRPPRLPRPRPRPAIDPRP and RRIRQRPPRLPRPRPRPNTIPRP are within 0.2 log units of each other in “shrunken log2 fold change” value: 0.0942 for the first, 0.0518 for the second.

Compared with RRIRARPPRLPRPRPRPNTYPRP, RRIRSRPPRLPRPRPRPQGVPRP is higher in “shrunken log2 fold change” value: -0.627 for the first, 0.225 for the second.

Going from RRIRQRPPRLPRPRPRPYEHPRP to RRIRYRPPRLPRPRPRPPYDPRP, the “shrunken log2 fold change” value falls from 0.00367 to -0.553.

Going from RRIRPRPPRLPRPRPRPAGIPRP to RRIRVRPPRLPRPRPRPVREPRP, the “shrunken log2 fold change” value rises from -0.0533 to 0.3.

RRIRGRPPRLPRPRPRPEQLPRP and RRIRQRPPRLPRPRPRPPWRPRP are within 0.2 log units of each other in “shrunken log2 fold change” value: 0.443 for the first, 0.619 for the second.

RRIRWRPPRLPRPRPRPGSSPRP and RRIRFRPPRLPRPRPRPGAIPRP are within 0.2 log units of each other in “shrunken log2 fold change” value: -0.0655 for the first, -0.244 for the second.

Going from RRIRERPPRLPRPRPRPHLGPRP to RRIRMRPPRLPRPRPRPCRDPRP, the “shrunken log2 fold change” value rises from -0.0405 to 0.244.

RRIRGRPPRLPRPRPRPQGYPRP and RRIRTRPPRLPRPRPRPDANPRP are within 0.2 log units of each other in “shrunken log2 fold change” value: 0.045 for the first, -0.103 for the second.

RRIRLRPPRLPRPRPRPQIGPRP and RRIRERPPRLPRPRPRPIKFPRP are within 0.2 log units of each other in “shrunken log2 fold change” value: 0.0441 for the first, -0.0529 for the second.

Compared with RRIRKRPPRLPRPRPRPYKDPRP, RRIRVRPPRLPRPRPRPWDGPRP is higher in “shrunken log2 fold change” value: -0.213 for the first, -0.00294 for the second.

Going from RRIRDRPPRLPRPRPRPNYIPRP to RRIRVRPPRLPRPRPRPRKKPRP, the “shrunken log2 fold change” value rises from -1.03 to 0.0671.

First: RRIRPRPPRLPRPRPRPIVMPRP
Second: RRIRTRPPRLPRPRPRPAPWPRP
The “shrunken log2 fold change” value of the first is lower: -0.445 for the first, 0.254 for the second.

First: RRIRERPPRLPRPRPRPIVFPRP
Second: RRIRARPPRLPRPRPRPPANPRP
The “shrunken log2 fold change” value of the first is lower: 0.0592 for the first, 3.4 for the second.

Compared with RRIRFRPPRLPRPRPRPTEEPRP, RRIRLRPPRLPRPRPRPMECPRP is lower in “shrunken log2 fold change” value: 0.0249 for the first, -0.489 for the second.

RRIRRRPPRLPRPRPRPWVNPRP and RRIRWRPPRLPRPRPRPWLSPRP are within 0.2 log units of each other in “shrunken log2 fold change” value: -0.0334 for the first, -0.0459 for the second.

RRIRKRPPRLPRPRPRPWAGPRP and RRIRVRPPRLPRPRPRPCHGPRP are within 0.2 log units of each other in “shrunken log2 fold change” value: 0.115 for the first, 0.000197 for the second.

RRIRPRPPRLPRPRPRPQEMPRP and RRIRHRPPRLPRPRPRPVPNPRP are within 0.2 log units of each other in “shrunken log2 fold change” value: 0.0716 for the first, -8.36e-05 for the second.

Compared with RRIRQRPPRLPRPRPRPPEPPRP, RRIRMRPPRLPRPRPRPHWSPRP is lower in “shrunken log2 fold change” value: 0.834 for the first, 0.0857 for the second.

RRIRARPPRLPRPRPRPYDSPRP and RRIRNRPPRLPRPRPRPQAAPRP are within 0.2 log units of each other in “shrunken log2 fold change” value: -0.0577 for the first, -0.0424 for the second.

Going from RRIRVRPPRLPRPRPRPGDDPRP to RRIRCRPPRLPRPRPRPKYSPRP, the “shrunken log2 fold change” value falls from 0.364 to -0.898.

RRIRQRPPRLPRPRPRPQRDPRP and RRIRTRPPRLPRPRPRPGIGPRP are within 0.2 log units of each other in “shrunken log2 fold change” value: 0.0969 for the first, 0.17 for the second.

RRIRFRPPRLPRPRPRPRVDPRP and RRIRIRPPRLPRPRPRPHEPPRP are within 0.2 log units of each other in “shrunken log2 fold change” value: -0.055 for the first, -0.129 for the second.

First: RRIRQRPPRLPRPRPRPPHSPRP
Second: RRIRNRPPRLPRPRPRPVWQPRP
The “shrunken log2 fold change” value of the first is higher: 0.511 for the first, 0.285 for the second.

First: RRIRSRPPRLPRPRPRPAWEPRP
Second: RRIRLRPPRLPRPRPRPTNDPRP
The “shrunken log2 fold change” value of the first is higher: 0.499 for the first, -0.288 for the second.

RRIRRRPPRLPRPRPRPPEIPRP and RRIRDRPPRLPRPRPRPANMPRP are within 0.2 log units of each other in “shrunken log2 fold change” value: -0.17 for the first, -0.229 for the second.

RRIRIRPPRLPRPRPRPQWTPRP and RRIRFRPPRLPRPRPRPGLDPRP are within 0.2 log units of each other in “shrunken log2 fold change” value: -0.0472 for the first, -0.0186 for the second.

RRIRWRPPRLPRPRPRPKLCPRP and RRIRWRPPRLPRPRPRPNVGPRP are within 0.2 log units of each other in “shrunken log2 fold change” value: 0.0167 for the first, -0.129 for the second.

RRIRERPPRLPRPRPRPVLFPRP and RRIRGRPPRLPRPRPRPSQKPRP are within 0.2 log units of each other in “shrunken log2 fold change” value: -0.141 for the first, 0.0248 for the second.

First: RRIRSRPPRLPRPRPRPYPLPRP
Second: RRIRYRPPRLPRPRPRPNEFPRP
The “shrunken log2 fold change” value of the first is higher: -0.105 for the first, -0.498 for the second.

Compared with RRIRNRPPRLPRPRPRPYERPRP, RRIRKRPPRLPRPRPRPTANPRP is higher in “shrunken log2 fold change” value: 0.0318 for the first, 0.863 for the second.

RRIRCRPPRLPRPRPRPMWTPRP and RRIRMRPPRLPRPRPRPQAFPRP are within 0.2 log units of each other in “shrunken log2 fold change” value: -0.0185 for the first, 0.0522 for the second.

Going from RRIRKRPPRLPRPRPRPFLRPRP to RRIRIRPPRLPRPRPRPFCFPRP, the “shrunken log2 fold change” value falls from 0.13 to -0.33.

Compared with RRIRPRPPRLPRPRPRPRYFPRP, RRIRERPPRLPRPRPRPSGEPRP is lower in “shrunken log2 fold change” value: 0.0508 for the first, -0.157 for the second.

RRIRTRPPRLPRPRPRPGGKPRP and RRIRTRPPRLPRPRPRPDTSPRP are within 0.2 log units of each other in “shrunken log2 fold change” value: -0.215 for the first, -0.324 for the second.

First: RRIRERPPRLPRPRPRPQMWPRP
Second: RRIRCRPPRLPRPRPRPPQPPRP
The “shrunken log2 fold change” value of the first is lower: -0.0958 for the first, 0.858 for the second.

Going from RRIRLRPPRLPRPRPRPPAAPRP to RRIRPRPPRLPRPRPRPTENPRP, the “shrunken log2 fold change” value falls from 0.771 to 0.138.

RRIRERPPRLPRPRPRPANQPRP and RRIRWRPPRLPRPRPRPCASPRP are within 0.2 log units of each other in “shrunken log2 fold change” value: 0.0465 for the first, -0.0152 for the second.

Compared with RRIRTRPPRLPRPRPRPNADPRP, RRIRSRPPRLPRPRPRPDNTPRP is lower in “shrunken log2 fold change” value: -0.00181 for the first, -0.44 for the second.

RRIRYRPPRLPRPRPRPRGPPRP and RRIRVRPPRLPRPRPRPTWMPRP are within 0.2 log units of each other in “shrunken log2 fold change” value: 0.127 for the first, 0.0438 for the second.

RRIRFRPPRLPRPRPRPIPVPRP and RRIRWRPPRLPRPRPRPNSFPRP are within 0.2 log units of each other in “shrunken log2 fold change” value: 0.0949 for the first, -0.0131 for the second.

Going from RRIRIRPPRLPRPRPRPVIHPRP to RRIRDRPPRLPRPRPRPQPKPRP, the “shrunken log2 fold change” value rises from -0.248 to 0.026.

Compared with RRIRARPPRLPRPRPRPGNCPRP, RRIRTRPPRLPRPRPRPRPRPRP is higher in “shrunken log2 fold change” value: 0.061 for the first, 0.81 for the second.

First: RRIRTRPPRLPRPRPRPRFHPRP
Second: RRIRARPPRLPRPRPRPKKNPRP
The “shrunken log2 fold change” value of the first is lower: 0.192 for the first, 0.441 for the second.

First: RRIRDRPPRLPRPRPRPPDAPRP
Second: RRIRGRPPRLPRPRPRPLRKPRP
The “shrunken log2 fold change” value of the first is lower: 0.65 for the first, 1.12 for the second.

Compared with RRIRCRPPRLPRPRPRPWTNPRP, RRIRIRPPRLPRPRPRPFCLPRP is lower in “shrunken log2 fold change” value: -0.0849 for the first, -0.739 for the second.

RRIRFRPPRLPRPRPRPQRTPRP and RRIRLRPPRLPRPRPRPDFLPRP are within 0.2 log units of each other in “shrunken log2 fold change” value: -0.101 for the first, -0.181 for the second.

RRIRARPPRLPRPRPRPCWIPRP and RRIRYRPPRLPRPRPRPWLSPRP are within 0.2 log units of each other in “shrunken log2 fold change” value: -0.197 for the first, -0.205 for the second.

Going from RRIRTRPPRLPRPRPRPIESPRP to RRIRSRPPRLPRPRPRPMWMPRP, the “shrunken log2 fold change” value falls from 0.0133 to -0.344.

Compared with RRIRFRPPRLPRPRPRPCHPPRP, RRIRMRPPRLPRPRPRPDNRPRP is lower in “shrunken log2 fold change” value: 1.35 for the first, 0.00102 for the second.

With RRIRSRPPRLPRPRPRPDDHPRP the “shrunken log2 fold change” value was -0.0124.
